This note sets out measurements from patent US20030044418A1 (TEXAS A AND M UNIVERSITY SYSTEM UNIVERSITY, published 2003).

One test deals with T1, thrombin digested Fg (human, UniProt P02671 36-629; P02675 45-491; P02679 27-437).
T1 construct: Fg coated on wells and treated with 1.0 NIH unit/ml thrombin for 30 min; also called thrombin-treated Fg; Fg treated with thrombin
T1 sequence 1: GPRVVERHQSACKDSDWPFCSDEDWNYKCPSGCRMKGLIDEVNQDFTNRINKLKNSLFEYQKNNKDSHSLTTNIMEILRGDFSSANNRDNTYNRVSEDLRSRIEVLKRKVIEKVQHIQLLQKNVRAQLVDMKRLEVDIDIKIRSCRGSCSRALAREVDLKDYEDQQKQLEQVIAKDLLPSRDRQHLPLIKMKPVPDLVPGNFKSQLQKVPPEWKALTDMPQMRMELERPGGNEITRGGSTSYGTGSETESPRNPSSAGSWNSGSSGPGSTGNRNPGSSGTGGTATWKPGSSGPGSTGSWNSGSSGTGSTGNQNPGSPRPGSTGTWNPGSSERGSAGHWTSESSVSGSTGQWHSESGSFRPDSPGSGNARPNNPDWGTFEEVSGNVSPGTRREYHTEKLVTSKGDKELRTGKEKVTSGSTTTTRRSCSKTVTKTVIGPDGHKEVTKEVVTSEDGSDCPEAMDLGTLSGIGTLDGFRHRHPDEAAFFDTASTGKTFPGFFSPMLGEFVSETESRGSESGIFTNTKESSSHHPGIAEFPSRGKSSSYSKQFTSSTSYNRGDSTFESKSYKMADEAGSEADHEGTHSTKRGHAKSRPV
T1 sequence 2: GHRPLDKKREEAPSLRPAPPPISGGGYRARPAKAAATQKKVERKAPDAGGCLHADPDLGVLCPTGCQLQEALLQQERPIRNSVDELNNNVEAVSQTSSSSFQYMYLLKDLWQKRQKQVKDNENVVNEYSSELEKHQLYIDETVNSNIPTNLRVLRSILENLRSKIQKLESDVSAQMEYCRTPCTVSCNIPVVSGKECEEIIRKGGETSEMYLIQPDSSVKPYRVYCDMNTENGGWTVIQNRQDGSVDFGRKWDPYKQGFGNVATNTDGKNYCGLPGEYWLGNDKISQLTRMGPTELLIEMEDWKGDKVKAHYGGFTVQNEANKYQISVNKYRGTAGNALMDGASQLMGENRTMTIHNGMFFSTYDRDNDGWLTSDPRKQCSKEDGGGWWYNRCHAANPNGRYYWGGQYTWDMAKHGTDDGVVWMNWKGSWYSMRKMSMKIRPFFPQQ
T1 sequence 3: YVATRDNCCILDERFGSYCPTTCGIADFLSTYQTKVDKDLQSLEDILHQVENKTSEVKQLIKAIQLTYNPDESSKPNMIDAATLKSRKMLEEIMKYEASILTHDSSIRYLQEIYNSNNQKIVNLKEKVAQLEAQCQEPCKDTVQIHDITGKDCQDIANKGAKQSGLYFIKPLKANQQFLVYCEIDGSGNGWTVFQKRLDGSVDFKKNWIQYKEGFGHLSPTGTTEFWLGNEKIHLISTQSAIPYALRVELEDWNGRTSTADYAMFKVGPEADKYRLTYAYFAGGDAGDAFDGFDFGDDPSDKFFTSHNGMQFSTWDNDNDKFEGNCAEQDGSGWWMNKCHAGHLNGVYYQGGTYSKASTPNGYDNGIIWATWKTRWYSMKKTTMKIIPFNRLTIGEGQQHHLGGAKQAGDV
Put plainly: ELISA, Fg-coated wells pretreated with thrombin, biotin labeled rSdrG(50-597). In general terms: An ELISA detects its analyte on a solid surface through an enzyme-linked reagent.

The target in a further test is T2, Aα chain of Fg (UniProt P02671 20-629).
T2 construct: Chain of native Fg on a Western ligand blot
T2 sequence: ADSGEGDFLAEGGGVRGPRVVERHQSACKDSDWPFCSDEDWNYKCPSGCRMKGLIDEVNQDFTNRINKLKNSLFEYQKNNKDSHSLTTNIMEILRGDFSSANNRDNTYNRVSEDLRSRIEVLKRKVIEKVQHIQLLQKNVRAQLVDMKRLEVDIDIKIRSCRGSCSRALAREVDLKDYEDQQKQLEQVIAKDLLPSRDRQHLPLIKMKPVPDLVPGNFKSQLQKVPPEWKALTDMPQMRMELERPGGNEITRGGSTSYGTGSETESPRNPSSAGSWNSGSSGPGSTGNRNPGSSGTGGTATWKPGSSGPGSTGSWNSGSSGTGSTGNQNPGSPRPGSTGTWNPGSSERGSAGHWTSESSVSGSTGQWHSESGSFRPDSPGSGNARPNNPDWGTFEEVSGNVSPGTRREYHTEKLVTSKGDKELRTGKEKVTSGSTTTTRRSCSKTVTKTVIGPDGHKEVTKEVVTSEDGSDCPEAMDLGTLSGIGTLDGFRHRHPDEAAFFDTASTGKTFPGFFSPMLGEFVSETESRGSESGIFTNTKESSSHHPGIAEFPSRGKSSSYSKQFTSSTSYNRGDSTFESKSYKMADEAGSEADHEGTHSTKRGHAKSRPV
Briefly: Western ligand blot, biotin labeled rSdrG(50-597).

Another test deals with T3, fibrinogen (Fg) (human, UniProt P02671 20-629; P02675 31-491; P02679 27-437).
T3 construct: Purified native Fg bought from Enzyme Research Labs, coated on microtiter wells (1 µg); also called human Fg; immobilized Fg
T3 sequence 1: T2 sequence
T3 sequence 2: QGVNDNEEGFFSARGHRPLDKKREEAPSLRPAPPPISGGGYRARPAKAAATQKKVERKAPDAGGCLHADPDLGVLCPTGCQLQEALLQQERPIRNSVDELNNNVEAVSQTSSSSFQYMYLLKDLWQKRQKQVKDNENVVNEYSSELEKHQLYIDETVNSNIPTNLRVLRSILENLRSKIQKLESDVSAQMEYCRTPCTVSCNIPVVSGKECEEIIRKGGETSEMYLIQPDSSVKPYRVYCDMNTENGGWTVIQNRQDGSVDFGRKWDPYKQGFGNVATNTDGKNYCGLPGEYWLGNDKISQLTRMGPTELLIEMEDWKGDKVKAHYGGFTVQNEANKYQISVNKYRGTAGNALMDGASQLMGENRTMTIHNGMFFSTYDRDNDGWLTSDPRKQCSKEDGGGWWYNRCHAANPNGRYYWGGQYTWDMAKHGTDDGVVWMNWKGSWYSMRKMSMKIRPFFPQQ
T3 sequence 3: T1 sequence 3
Put plainly: ELISA, increasing rSdrG(50-597) on immobilized Fg, anti-His-tag detection; apparent KD.

In test [1] the target is T4, Fg treated with contortrixobin (human, UniProt P02671 20-629; P02675 45-491; P02679 27-437).
T4 construct: Fg coated on wells and treated for 30 min at room temperature with contortrixobin from Agkistrodon contortrix contortrix; also called contortrixobin-treated Fg
T4 sequence 1: T2 sequence
T4 sequence 2: T1 sequence 2
T4 sequence 3: T1 sequence 3
Briefly: ELISA of Example 2, Fg-coated wells pretreated with protease, biotin labeled rSdrG(50-597).

B1: rSdrG(50-597) (other)
chain: HHHHHHAEENTVQDVKDSNMDDELSDSNDQSSNEEKNDVINNSQSINTDDDNQIKKEETNSNDAIENRSKDITQSTTNVDENEATFLQKTPQDNTQLKEEVVKEPSSVESSNSSMDTAQQPSHTTINSEASIQTSDNEENSRVSDFANSKIIESNTESNKEENTIEQPNKVREDSITSQPSSYKNIDEKISNQDELLNLPINEYENKVRPLSTTSAQPSSKRVTVNQLAAEQGSNVNHLIKVTDQSITEGYDDSDGIIKAHDAENLIYDVTFEVDDKVKSGDTMTVNIDKNTVPSDLTDSFAIPKIKDNSGEIIATGTYDNTNKQITYTFTDYVDKYENIKAHLKLTSYIDKSKVPNNNTKLDVEYKTALSSVNKTITVEYQKPNENRTANLQSMFTNIDTKNHTVEQTIYINPLRYSAKETNVNISGNGDEGSTIIDDSTIIKVYKVGDNQNLPDSNRIYDYSEYEDVTNDDYAQLGNNNDVNINFGNIDSPYIIKVISKYDPNKDDYTTIQQTVTMQTTINEYTGEFRTASYDNTIAFSTSSGQGQGDLPPE
notes: Used biotin labeled in the Western ligand blots and in the ELISAs on protease-treated Fg; also called recombinant SdrG A-region; recombinant form of the N-terminal A-region of SdrG
Regarding B1, the binding result was “no binding (tested: 25-1000 nM)” with thrombin digested Fg, “no binding” in the test with Aα chain of Fg and “no binding (tested: 25-1000 nM)” in test [1]. The Kd in the test with fibrinogen (Fg) is 90 nM.
